# From patent publication US20260209294A1, “USE OF RECOMBINANT PROTEIN IN PREPARING DRUG FOR INHIBITING ANEURYSM” (HUAZHONG UNIVERSITY OF SCIENCE AND TECHNOLOGY, priority 2022, published 2026)
# Experiments:
# [1] = tested on: TGFβ1 signaling pathway in VSMC cells (aortic smooth muscle cells); test: VSMC cells treated with AGGF1 protein: Western blot, ELISA, RT-PCR of TGFβ1 signaling; format: cell-based
# Experimental: FIG. 8 depicts that AGGF1 inhibits TGF-β1 and ERK1/2 signaling pathways and a TGF-β1-induced VSMC inflammation. […] Subsequently, cell lysates are collected for the western blot analysis of p-ERK1/2, T-ERK1/2, and p-Smad3. The GAPDH serves as a loading control. […] After 48 hours, the cell lysates are collected for the western blot analysis of p-ERK1/2, T-ERK1/2, and p-Smad3. […] The GAPDH serves as a loading control. […] Subsequently, mRNA is extracted using a Trizol method and reverse transcribed to obtain cDNA for a real-time RT-PCR detection of Il-6, Mcp1, Mmp2, and Mmp9 mRNA levels. […] Subsequently, mRNA is extracted using the Trizol method and reverse transcribed to obtain cDNA. The real-time RT-PCR is performed to analyze the mRNA levels of Il-6, Mcp1, Mmp2, and Mmp9. *, P<0.05; **, P<0.01; ***, P<0.001; n=3/group.
# (§1) The β-actin serves as a loading control. […] The GAPDH serves as a loading control. […] The mRNA is extracted using the Trizol method and reverse transcribed to obtain cDNA. […] Cells are transfected with different plasmids of LAP-TGF-β1-FLAG and the integrin α7-FLAG, and treated with the purified AGGF1 or AGGF1-RDDdel for 24 hours, with grouping as shown in FIG. K. *, P<0.05; **, P<0.01; ***, P<0.001; n≥3/group.
# (§2) In vitro experiments were performed using aortic smooth muscle cells and HEK293T cells. As shown in A-C of FIG. 8 and A-F of FIG. 9, whether with recombinant AGGF1 protein, AGGF1-FLAG overexpression, or AGGF1 silencing, Western blot analysis and ELISA experimental results verified that AGGF1 inhibits the TGFβ1 signaling pathway (Smad3 and ERK1/2) and the level of the mature TGFβ1. […] In the Western blot analysis of FIG. 10, it was verified that LAP-TGFβ1 interacts with integrin α7 through the RGD sequence, which is also the molecular mechanism by which integrin α7 inhibits TGFβ1.
# [2] = tested on: mature TGFβ1 in HEK293T cells; test: ELISA of TGF-β1 levels in culture medium of HEK293T cells transfected with LAP-TGF-β1-FLAG and integrin α7-FLAG; format: cell-based; conditions: purified protein 24 hours
# Experimental: as §1, §2
# [3] = molecular target: T1, integrin α7 / LAP-TGF-β1 interaction (Homo sapiens, UniProt Q13683); test: Co-IP of LAP-TGF-β1-GFP and integrin α7-FLAG in HEK293T cells; format: cell-based; conditions: AGGF1 overexpression or stimulation for 24 hours
# T1 construct: FLAG; GFP; expressed in transfected cells; host or cells: HEK293T
# T1 sequence (Q13683 34-1181): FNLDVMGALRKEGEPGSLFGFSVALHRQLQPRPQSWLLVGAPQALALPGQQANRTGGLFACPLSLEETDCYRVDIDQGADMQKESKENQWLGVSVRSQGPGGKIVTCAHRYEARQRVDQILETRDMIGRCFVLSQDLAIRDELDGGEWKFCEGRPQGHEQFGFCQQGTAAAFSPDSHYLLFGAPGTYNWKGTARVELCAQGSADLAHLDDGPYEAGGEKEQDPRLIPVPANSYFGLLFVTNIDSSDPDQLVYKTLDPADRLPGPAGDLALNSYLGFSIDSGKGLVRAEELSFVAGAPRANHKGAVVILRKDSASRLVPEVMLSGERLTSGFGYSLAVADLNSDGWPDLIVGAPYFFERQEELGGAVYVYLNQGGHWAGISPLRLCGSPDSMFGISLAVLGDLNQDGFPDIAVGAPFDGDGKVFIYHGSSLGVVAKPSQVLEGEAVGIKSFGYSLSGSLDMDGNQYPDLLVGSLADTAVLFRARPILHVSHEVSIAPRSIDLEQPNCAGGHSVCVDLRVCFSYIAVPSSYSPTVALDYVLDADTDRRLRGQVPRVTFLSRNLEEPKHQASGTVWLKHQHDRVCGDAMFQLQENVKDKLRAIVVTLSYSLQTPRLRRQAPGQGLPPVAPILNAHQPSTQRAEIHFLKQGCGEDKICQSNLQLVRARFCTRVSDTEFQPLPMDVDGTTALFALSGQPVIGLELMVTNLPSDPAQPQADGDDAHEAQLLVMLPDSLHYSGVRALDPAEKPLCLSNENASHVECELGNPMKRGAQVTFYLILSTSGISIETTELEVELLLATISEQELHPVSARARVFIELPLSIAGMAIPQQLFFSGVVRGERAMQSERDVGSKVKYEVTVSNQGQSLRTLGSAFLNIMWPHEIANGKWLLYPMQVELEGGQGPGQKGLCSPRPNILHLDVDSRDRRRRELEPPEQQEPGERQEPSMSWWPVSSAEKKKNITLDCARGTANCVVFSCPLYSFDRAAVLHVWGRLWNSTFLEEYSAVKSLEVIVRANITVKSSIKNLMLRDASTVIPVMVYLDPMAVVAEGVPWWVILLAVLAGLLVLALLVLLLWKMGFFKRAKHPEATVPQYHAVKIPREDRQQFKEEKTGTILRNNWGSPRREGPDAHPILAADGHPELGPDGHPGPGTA
# T1 sequence (P05556 21-798 partner): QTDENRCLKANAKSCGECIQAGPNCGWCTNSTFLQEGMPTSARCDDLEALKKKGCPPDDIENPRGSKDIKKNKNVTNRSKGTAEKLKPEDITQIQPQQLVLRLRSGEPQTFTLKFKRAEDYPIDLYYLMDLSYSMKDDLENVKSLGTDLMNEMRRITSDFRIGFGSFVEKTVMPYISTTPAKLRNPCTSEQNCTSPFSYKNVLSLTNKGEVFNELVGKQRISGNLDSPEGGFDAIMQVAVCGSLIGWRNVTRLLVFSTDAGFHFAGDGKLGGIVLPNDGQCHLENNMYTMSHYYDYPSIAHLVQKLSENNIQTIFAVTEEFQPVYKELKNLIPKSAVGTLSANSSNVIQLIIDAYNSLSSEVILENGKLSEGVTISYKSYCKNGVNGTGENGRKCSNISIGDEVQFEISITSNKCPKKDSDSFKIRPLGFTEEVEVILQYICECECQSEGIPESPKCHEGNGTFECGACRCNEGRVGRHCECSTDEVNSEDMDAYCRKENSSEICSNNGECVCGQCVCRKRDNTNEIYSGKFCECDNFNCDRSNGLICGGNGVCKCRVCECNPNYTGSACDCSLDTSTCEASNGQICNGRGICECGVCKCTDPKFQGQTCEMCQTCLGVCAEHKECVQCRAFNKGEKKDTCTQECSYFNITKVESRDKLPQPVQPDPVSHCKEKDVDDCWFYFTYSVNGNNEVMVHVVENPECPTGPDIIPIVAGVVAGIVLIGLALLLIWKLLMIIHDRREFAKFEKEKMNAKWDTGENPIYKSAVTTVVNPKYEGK
# Excerpt: FIG. 10 illustrates that the integrin α7 interacts with LAP-TGF-β1 via an RGD sequence, and AGGF1 enhances this interaction. […] Quantitative data of a LAP-TGF-β1-GFP/α7-FLAG ratio are plotted as bar graphs on the right. […] Quantitative data of the LAP-TGF-β1-GFP/α7-FLAG ratio are plotted as bar graphs on the right. *, P<0.05; **, P<0.01; ***, P<0.001; n=3/group.
# [4] = tested on: aortic aneurysm induced by Fbn1^C1041G/+ mutation; test: AGGF1 treatment of spontaneous aortic aneurysm in Fbn1 C1041G/+ mutant mice; format: in vivo
# Excerpt: FIG. 13 depicts an AGGF1 treatment for a spontaneous aortic aneurysm in FbnC1041G/+ mutant mice. […] The bar graph on the right illustrates the luminal diameter of the ascending aortic. […] The GAPDH serves as a loading control. […] The bar graphs on the right indicate the percentage of the positive area for the respective immunostaining quantification. *, P<0.05; **, P<0.01; ***, P<0.001; n=8/group for mouse studies, other sample sizes n=4/group.
# The present disclosure obtained the previously published Fbn1^C1041G/+ mutant mice from Tongji Hospital. Compared with the wild-type mice, we detected spontaneous aortic expansion in these mice at week 10, resulting in the aortic aneurysm. After obtaining these mice, at week 10, mice were intraperitoneally injected with Buffer or AGGF1 protein, and the injection continued until week 18. At week 18, mice underwent ultrasound examination, then were euthanized and their aortas were collected for Western Blotting experiments and histochemical staining.
# [5] = tested on: BAPN-induced aortic aneurysm; test: β-aminopropionitrile (BAPN)-induced aortic aneurysm model; format: in vivo, C57BL/6 male mice; conditions: BAPN-fed mice
# Excerpt: FIG. 14 depicts an AGGF1 treatment for a β-aminopropionitrile (BAPN)-induced aortic aneurysm. […] The bar graphs below show the intimal thickness (1st image), the adventitia thickness (2nd image), and the total carotid artery wall thickness (3rd image). […] The bar graphs on the right show the percentage of the positive area for respective immunostaining quantifications. […] The GAPDH serves as a loading control. *, P<0.05; **, P<0.01; ***, P<0.001; n≥8/group for mouse studies, other sample sizes n=4/group.
# β-aminopropionitrile is a lysyl oxidase (LOX) inhibitor that is readily soluble in water. Three-week-old mice fed with 0.25% BAPN have a very high incidence of the thoracic aortic aneurysm after 4 weeks. Three-week-old C57BL/6 male mice were divided into 4 groups, with ultrasound detection of the aorta on day 28, followed by euthanasia and collection of the aorta for Western Blotting experiments and histochemical staining.
# [6] = tested on: TAC-induced mouse aneurysm model; test: TAC (transverse aortic constriction)-induced aneurysm model, i.p. recombinant AGGF1 or AGGF1-RDDdel protein; format: in vivo, C57BL/6 mice; conditions: 0.5 mg/kg i.p., day 21
molecule,measurement,setting,value
"AGGF1 protein: recombinant human AGGF1 protein with His tag, SEQ ID NO:1, expressed from pet28-AGGF1 in Escherichia coli BL21 (DE3) (protein, listed as Homo sapiens, His tag) MASEAPSPPRSPPPPTSPEPELAQLRRKVEKLERELRSCKRQVREIEKLLHHTERLYQNAESNNQELRTQVEELSKILQRGRNEDNKKSDVEVQTENHAPWSISDYFYQTYYNDVSLPNKVTELSDQQDQAIETSILNSKDHLQVENDAYPGTDRTENVKYRQVDHFASNSQEPASALATEDTSLEGSSLAESLRAAAEAAVSQTGFSYDENTGLYFDHSTGFYYDSENQLYYDPSTGIYYYCDVESGRYQFHSRVDLQPYPTSSTKQSKDKKLKKKRKDPDSSATNEEKDLNSEDQKAFSVEHTSCNEEENFANMKKKAKIGIHHKNSPPKVTVPTSGNTIESPLHENISNSTSFKDEKIMETDSEPEEGEITDSQTEDSYDEAITSEGNVTAEDSEDEDEDKIWPPCIRVIVIRSPVLQIGSLFIITAVNPATIGREKDMEHTLRIPEVGVSKFHAEIYFDHDLQSYVLVDQGSQNGTIVNGKQILQPKTKCDPYVLEHGDEVKIGETVLSFHIHPGSDTCDGCEPGQVRAHLRLDKKDESFVGPTLSKEEKELERRKELKKIRVKYGLQNTEYEDEKTLKNPKYKDRAGKRREQVGSEGTFQRDDAPASVHSEITDSNKGRKMLEKMGWKKGEGLGKDGGGMKTPIQLQLRRTHAGLGTGKPSSFEDVHLLQNKNKKNWDKARERFTENFPETKPQKDDPGTMPWVKGTLE","TGFβ1-induced inflammation (Il6, Mcp1, Mmp2, Mmp9)","[1]; RT-PCR, TGF-β1 24 hours then AGGF1 24 hours",inhibit
same,level of the mature TGFβ1,"[1]; Western blot and ELISA, protein treatment 48 hours",inhibits
same,TGFβ1 signaling pathway (Smad3 and ERK1/2),"[1]; Western blot, TGF-β1 15 minutes then AGGF1 10 minutes",inhibits
same,inhibition of mature TGFβ1 by integrin α7,[2],enhance
same,interaction of integrin α7 with LAP-TGF-β1 (LAP-TGF-β1-GFP/α7-FLAG ratio),[3],enhances
same,expansion of the ascending aorta,"[4]; i.p. from week 10 to week 18, ultrasound at week 18",significantly inhibit
same,increase in αSMA/CD68/MCP1 levels (immunostaining positive areas),[4]; week 18,significantly inhibit
same,"level of mature TGFβ1 (Western blot, ascending aorta)",[4]; week 18,inhibited
same,"p-ERK (Western blot, ascending aorta)",[4]; week 18,inhibited
same,"p-Smad2 (Western blot, ascending aorta)",[4]; week 18,inhibited
same,"p-Smad3 (Western blot, ascending aorta)",[4]; week 18,inhibited
same,thickening of the vascular media,[4]; week 18,significantly inhibit
same,incidence of BAPN-induced aortic dissection,[5],no effect
same,"level of the mature TGFβ1 (Western blot, ascending aorta)",[5],inhibited
same,"p-ERK (Western blot, ascending aorta)",[5],inhibited
same,"p-Smad2 (Western blot, ascending aorta)",[5],inhibited
same,"p-Smad3 (Western blot, ascending aorta)",[5],inhibited
same,survival rate of aneurysm model mice,[5],significantly improve
same,aortic inflammation,[5]; day 28,significantly inhibited
same,aortic remodeling,[5]; day 28,significantly inhibited
same,aortic thickening (H&E staining),[5]; day 28,significantly inhibited
same,"vascular expansion (ascending aorta, ultrasound)",[5]; day 28,inhibitory effect
same,"level of the mature TGFβ1 (Western blot, ascending aorta, FIG. 7)",[6],inhibit
same,"p-ERK1/2 (Western blot, ascending aorta, FIG. 7)",[6],inhibit
same,"p-Smad3 (Western blot, ascending aorta, FIG. 7)",[6],inhibit
